Measurements: paper PMC8228269, “Characterization of Feruloyl Esterase from Bacillus pumilus SK52.001 and Its Application in Ferulic Acid Production from De-Starched Wheat Bran” (Foods, 2021)

Substrate: COC(=O)/C=C/c1ccc(O)c(OC)c1
Assay: HPLC-UV of released ferulic acid, nonlinear Hill fit
Format: biochemical, Bacillus pumilus
Details: 0.1-8 mmol/L substrate, 50 mmol/L Tris-HCl pH 9.0, 50 °C

B1: BpFAE (Bacillus pumilus) (protein)
chain: MNLQEQIKIAASLRQPAEGSLPSQSELKPVHPPEVNKMEYDIPTSAGETKVWIFKPVNTSKQPLPVFVNLHGGGFILGSAEMDNHWCPVIADRAQCIVVNVEYQLAPEHPFPAALHECYDVLKWLYEHPDELQIDPNRVAIGGHSAGGNLATAACLLNIQKGNPVPIVYQVLDYPPLDLATDPAEKPAFEEAIPVEMARLFNAFYLQGQDPHNPLVSPIFADRSSLAQLPPALVITAERDSLAQEAEQYAEKLKEAGVDVTYRQFKGVPHAFTHAGDLEIAEEAWHLMSDQLKKAFE
notes: C-terminal 6xHis tag (removal not mentioned); expressed in B. subtilis WB800 from pMA5 (NdeI/BamHI); forward primer reads […]; (ATG of the NdeI site followed by a second ATG)
- Km: 950 µM
- kcat: 514.91 s⁻¹
